# Results taken from the DeepSol protein solubility set.
# Assay: soluble on expression in E. coli; label from the status in PepcDB or PDB records
row,Sequence,soluble on expression in E. coli
1,MAINPFFTLVQRPVQSIEMAPPKPSAKGAKKAAKTVTKPKDGKKRRHARKESYSVYIYRVLKQVHPDTGVSSKAMSIMNSFVNDVFERIAAEASRLAHYNKRSTISSREIQTAVRLILPGELAKHAVSEGTKAVTKYTSSK,not soluble
2,MNPGKPMPLVVHGWTIFAHPLFLAQIEVLIQQVEAHKQKDPVGFVKKNASKRLAAITKLAFDIILQDPARPEYRQGGTLGDDYKHWFRAKFFQQYRLFFRYHTLSKVIVFAWVNDEDTRRAYESSDDAYRMFRKMLENGLPPDDWNQLLAEARAEGQRLQQFAARWW,not soluble
3,MNRRVVIVTAVHGPSAPFLPEAYASLCAQELPDGWEWRWVIQEDGRTQDVRPHVPDDPRVVFHQGRHGRQGGPGVARTMALAHADGAYVKVLDADDRLTPGALARDLAALEADPSIGWATSRVLDLLPDGSTAGFPGDPAHGPIERGEVLDFWRANGFRAQVHPATLLVRRDLLLAVGGWMALPASEDTGLLLALNCVSRGWFTEDVGLLYRKWEGQETGQASHVDPAERDARMTVVEARARALASFGWRLPEGTGDFDHLEHHHHHH,not soluble
4,MSLDLPSRPPAPPEGVIGRRIRYADALEPEREEWFVAGTELAEVTAPEAPTPRIETPADGMIIALDPDIPARNQKLILRARPARAGMSFLLDGRPVGPAETPVKWPPEPGGHVLKLMDDRGRTLDLVKFQVRGMREGHHHHHH,soluble
5,MINITSMRDSFGDWAEKFLKSKEADGVSVSQLNSYKNYCRNHLSPLYMKSLSEILPADIQSIINETKLAKNTLKAIRNTASQIFRLAIENRAIDFNPADYVRIPKIAPEFHRDALEHHHHHH,soluble
6,MRMTLAVHTRQYSIHSFNPSAPIPSKVFAEEVYFICKTEEGLTLVVSSELALDSLEQETNWSCLEVLGPLGFSLTGILSKIASTLADVQISIFALSSFDTDYILVKKDCLQNAMTALKKAGYKIIESKLEHHHHHH,not soluble
7,MSLDAAAATLPRKSGSVDRLVRLAEADMAGVNRLITDRMQSDVAIIPALAEHLIAAGGKRLRPLMTVAAARLAGADNDHFQKLAAAVEFIHTATLLHDDVVDGSQLRRGKVAAHLIWGGAQSVLVGDFLFARAFELMVETNSMKALEILARASRVIAEGEVLQLMRSHDLNLSQAVYLEIIQAKTAELFAAASEAGAVSAGVDVAESEALRDYGLNLGLAFQLADDALDYGGATETLGKNAGDDFREGKATLPLLLAIARSGPREAEFWERAIGRREQTEADFRRARELIIGSGALDATLDLAADYADKAKAALAMFPANDWREALEELADFAVSRRAEGHHHHHH,soluble
8,LGGNANAGLEVLKDATAQAIADAKALLAAGKVSVKIQEPCDEILFSRAKVWNGEKWACVTIVGGHTNIVHIETHNGVVFTQQACVTEGEQESPLTVLSRTTLAEILKFVNEVPFAAIRFILDSAKLNCALSQEGLSGNWGLHIGATLEKQCARGLLAKDLSSSIVIRTSAASDARMGGATLPAMSNSGSGNQGITATMPVVVVAEHFGADDERLARALMLSHLSAIYIHNQLPR,not soluble
9,GMSAPEDWNSQVIQEFRANGGRVGGNFEGAPMVLVHHVGRKTGKAAVTPMMYLPSDDDPGTIYVFASKAGAASNPAWYYNLTTAGTAQVEVGTETYAVGVTEVTGEDRDRIYSEQARRYPGFADYEKKTAGIRTIPVLALTRT,soluble
10,MSLQGPNPIITVYSTQDYPILHAELASQVYLMDQVEQWENMISQRLSANPSVAAQQASQIFQSAEWKQSEEQLKRSYQGLISGWQNGIKKVPAVLFQYPGKEDSVIYGETNIAQALSLWQREITKEGTREGHHHHHH,soluble
11,MKRSAFFISDGTGITAETLGQSLLAQFENITFNKFTRPYIDSVEKARAMVQQINNAADKDDVRPIIFDTIVNQDIREILATSNGFMIDIFSTFLAPLEQELSSHSSYSVGKSHSIGHNSNYMERIEAVNFALDNDDGARTHYYDKADIILVGVSRCGKTPTCLYMAMQFGIRAANYPLTEDDMERLQLPPALKQHREKLFGLTIDPDRLTAIRHERKPNSRYSSYAQCEFEVREVESLFRRENIPNINSTHFSVEEISAKVLVEKGVERRFKLEHHHHHH,not soluble
12,MSLTVSNNFKMIYIASCGEGINAFHLVESTLVQFPDSDITVVKVPHIRTESQVDHLLDRVKDVESLIAHTIVEPNLRQYLVTKAEEHKIVTIDLMGQVLNKIETFLSIRPLGKPGLYRETHQVDLKQVTAIDFALAHDDGLRPESLDEAEIILVGLSRAGKTPLSMYMGVMGWKVANIPYVPGVPMPQTLDEVDRRRVIALNINIEQLLSHRKMRQESLGTSDMHAYSRRQEVEVEVQTAQKYYITKGFSMIDVSNKPIETSAEEIAEMITRRFKAQAHEGHHHHHH,not soluble
13,MGSDKIHHHHHHMTQEDKKLSCTDCALLNCHKKDKTFPQFCLTTHTPEETIEGVNELYRKDDFVAKLSNAAAEIEGTYYGKLTRVEEIMAFAKRIGAKKIGIATCVGLMSEARIFAKILKAKGLESYGIICKVGAVDKTQVGVPEELKVNKGCHESLCNPVLQATLLNEEKTDLNVIVGLCVGHDSLFIKYSEAPVTTLITKDRVLGHNPAAALYASGFYYRRLLQEGDL,not soluble
14,MVEVVGVRFREAGHIYYFAPGKSEYIYNEKVLVESQQSKQLATVAIPKKTVDSDDLPEDLKPILNKATANDLEKEQKNLADAEAAKSIANEKIRAHDLKMKLVRVEYTFDRSKMIFYFTADGRIDFRELVKDLAAIFRTRIELRQIGVRDEAKILGGIGPCGRQLCCSTFLGDFMPVSIKMAKDQGLSLNPVKISGLCGRLMCCLKYENDEYEAAKKELPDYGKEVITPDGKGKVVGLNLLSRIVKVRLHGREIAADYDYEEIKEATAKVAAEKGDQNGLEHHHHHH,soluble
15,MYRAIGMIELTSVARGIYATDQMLKIAYVDVVSATPVCPGKYIAIVQGDVAAVESSISTGIAISGEYLVDSFVLPNVHEGIFPAITATTMPDGTGALGIMESFSMASMITAADAALKAADVQALELRLGSGLGGKAYFTFTGDVAAVEAGIEAGKAIAMEKGLLVDIEVIPSPSDRLWTSLY,soluble
16,SNAMELEQKLNLLNDLIVREIVNPLPPPYKVGVDLGTADIVLVVTDQEGIPVAGALKWASVVKDGLVVDYIGAIQIVRELKAKVERLLGSELFQAATAIPPGTVGRNAEACGHVVAGAGLELVTLVDEPVAAARALGINDGIVVDIGGGTTGIAVIEKGKITATFDEPTGGTHLSLVLAGSYKIPFEEAETIKKDFSRHREIMRVVRPVIEKMALIVKEVIKNYDQTLPVYVVGGTAYLTGFSEEFSRFLGKEVQVPIHPLLVTPLGIALFG,soluble
17,MSVMTLKKQTYRVIAVINQGQELLVRAHEPETADIEIIPVTTVVQVTEQNSTGDAAVALDTVTVVGERYVDDIVATLTTLRVGMAVLLQRESGNQYDDNAISVWTLQHAKLGYIARYQNQPYATLMDQGQRLYGIVTVLDQQKQHLELMLWRTTAVPSPIEALQIRQRLAKPRTNLGAVPTHSLQTPLGTIVMMCNGHPIKYQQVPLSPWLTPADELHVTKRYLLTPDWSQVPPDSLITCQVTAKADVVQRWQNEHISAAVLTNASSFYVVGISAQTKTGLNDNLVDDAAQPAVIYRVGQVSAHMQAGFMVSWAPFGDPRVQPALKLALHFSSQPLVPYHPVTPSRTNATFTQQELAALLVSALPNYQGGQRLEPSVTTITVEKLRQTLGDQTYHALANYQRHVQLVAGSTEGVNETLLQALIHAVTYHELTTMHYYQPTVGMVDQVIYPIQLFSTTTKDEDDAQLVGCLALYNYETFEIQQVPLTAIARIAIIADPEHPQTTPETESPDWLRIFLHGWNDDFLEHHHHHH,soluble
18,MAYQRIRQPKLSDVIEQELERLIVEGTLSPGQQLPPERELAKQFEVSRPSIREAIQRLEAKRLLTRRQGGGTFVSDRIWQSFSDPLLNLLSSHSETQLDLLEARHALEGICAYFAALRGTEEDFARIQHCVTRIAEAQALNNVDEEAERVMAFLIAITEAAHNVVLLHIVRSLSPLLEQNIRQNFKLLHRRPEAVEKVSKHRANIVDAIVSGQPEKAREMSHSHLAYIEETLLDLTREQTRRERSLRRIQQGNEPQ,soluble
19,AIAGRKSNRAKEKKQRRLEERAAMDAVCAKVDAANKLEDPLSAMPVFKKYDRNGLNLQIECKRVTALSPDTVEWAYELTRANMQTLYEQSEWGWKEREKREEMKDERAWYLLARDADSTPLAFSHFRFDVECGDEVLYCYEVQLESKVRRKGLGKFLIQILQLIANSTQMKKVMLTVFKHNHGAYQFFREALQFEIDETSPSMSGCCGEDCSYEILSRRTKYGEVSGHAHGGHCGGCCH,soluble
20,GMPPVWTLPRLYQHFQGAIDLELWTIPYYLTVLYSIKDPTTVPYRLIQAAVYQEMLHAQLVSNIANAYGYSPTLSAPEYVGTAVPHIDFDLDTPNPTSIFTPYSAELGPLDLTRVNTMCLIEYPEWRTQREPDLADDVTDYGSIGEFYDALRVGMEQLRGHVRGNQKQMDEFGPFYQNSPPLTVTESGDAGFLQALTLVDIIVDQGEGQTQPVETIPTEFQNTADGFQDAWPHFQRFDFIRRMPNWPGVYTGVTDPPAGSPGAEAQARLIADFAGFLDILNGMFSGGGAPPAFGVQMAKLGGDILSCWKLGAVPRYS,soluble
21,MNVSVVIPALNEEATVADVVALSRRGSDEVIVIDSDSTDATAARAKAAGASVVNWRDVVSLPPIPGKGEALWRGVAAARGDVVVFLDADLTEISPTIVEDLARPFIDDSVMLAKAAYTRGDASGGGGRVTELTARPLLEAFFPELGFVRQPLGGEYAIRRSAALDLPFVGGYGVEVGLLIDVFRCFGAASIVEVEAGHRGHRHRPLRELAPMARVVASTILQRAGVASGLDGVGQRPAISSLESGVGKVLEHHHHHH,soluble
22,MATMTTKSHCTFNPDYYQDVWQRFGEEEYDVVVIGGGSVGAGAGLDAAIRGLKVAVVESRDFAAGTSSRSSKMFHGGLRYLAMLDFKLVAESLHERELNMSTLAPHLVKPLKFLFPLTHHVWERVMMFGGFTLYDLMGGAKSVPMQKHYSRKGTLAMAPGLKDDAVVGSVRYFDTLVDDARHTMTVLRTAGELGADVRPSTQVVGFEKDGQRVVGAILQDTDTGEQTTIRGKVFINATGVWNDHIEKLAGGNGPFSVHASKGVHIVVPKNVFDADAAMCFVTEKSVLFVIPWGEYWIIGTTDTDWDLNRADPAPTAADINYILDEVNQRVRRPIQHSDIVGVYSGLRPLLSGKSDTTTKLSRNHAVAKVMPGLVSVAGGKYTTYRVIGKDAVDLATEDLDFRVPASESERTPILGADGYHALQNQAPRIARTFGTTEDVVEHLLGRYGSLVHEVLEPSVDKPELLEPIPGAPGYIKAEAVYAVTHEGALHVEDIVERRLRAGIEYADRGVAAAPAIAELVADYLGWDAERTAAEVTAFTDRVSAEIAAEKELTDKAANEHIVAGSAVRSYVDVSGDNLEHHHHHH,soluble
23,MTIDMRLRPPLQSWKSTAQFKEGTAYYPTRYGFPRPKSVGTQDIGDLLAEMDEADITWGVVMGRQSAPPHGIVPNEEISDFVRQHADRFVGFAGIDLRDIDKAVADLDGYARSDEFKGISIEPGAGFVPLYSDDPSLFPLYERAQELQLPLSITLSGYLSSMAGHPTSYGNPSPVATVARKFPRLKIVVSHAAWPNVMPMLEVAFLHDNVYVSPDLYMNHVHTPGAHEYINAAKFYLADRLLFGTAYPSRPLKESVAGFRQWDLDSELAEKILHRNAARLLGLELEHHHHHH,not soluble
